This passage reports IC50, antagonism of IL-9-mediated eosinophil survival (7.14 nM wild-type IL-9) and IC50, antagonism of IL-9 mediated Mo7e proliferation (0.357 nM wild-type IL-9) results from patent US20040247566A1.

For this assay, the target named is human IL-9 receptor (human) (UniProt Q01113). In words: cell-based or functional assay.
UniProt Q01113, sequence (Q01113 41-521, chain 1 of 2): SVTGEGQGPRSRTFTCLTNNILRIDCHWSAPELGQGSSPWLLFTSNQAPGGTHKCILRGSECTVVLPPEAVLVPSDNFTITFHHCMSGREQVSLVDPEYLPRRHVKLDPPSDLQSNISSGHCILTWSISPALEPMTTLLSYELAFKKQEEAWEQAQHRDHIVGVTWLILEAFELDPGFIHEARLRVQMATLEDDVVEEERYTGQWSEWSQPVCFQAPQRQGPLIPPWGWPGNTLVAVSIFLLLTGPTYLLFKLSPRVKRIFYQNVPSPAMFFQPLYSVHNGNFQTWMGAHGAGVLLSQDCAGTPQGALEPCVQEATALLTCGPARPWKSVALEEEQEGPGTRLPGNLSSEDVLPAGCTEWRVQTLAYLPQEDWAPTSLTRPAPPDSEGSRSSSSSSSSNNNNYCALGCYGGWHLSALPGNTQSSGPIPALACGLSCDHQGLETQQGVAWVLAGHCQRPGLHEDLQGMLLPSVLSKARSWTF
UniProt Q01113, sequence (P31785 23-369, chain 2 of 2, further chain): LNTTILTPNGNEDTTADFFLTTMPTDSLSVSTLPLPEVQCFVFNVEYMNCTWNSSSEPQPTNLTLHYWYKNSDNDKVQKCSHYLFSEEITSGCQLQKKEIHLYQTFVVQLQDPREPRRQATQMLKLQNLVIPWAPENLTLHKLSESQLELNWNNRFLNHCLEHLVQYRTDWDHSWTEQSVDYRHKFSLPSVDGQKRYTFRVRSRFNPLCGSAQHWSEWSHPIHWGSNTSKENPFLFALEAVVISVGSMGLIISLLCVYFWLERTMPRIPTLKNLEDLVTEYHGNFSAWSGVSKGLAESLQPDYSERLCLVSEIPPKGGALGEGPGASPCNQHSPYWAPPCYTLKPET

On to “Carboxy-terminal Fc-fusion construct of the K126E/Q133K IL-9 mutein (Fc fusion)”, for which the IC50, antagonism of IL-9-mediated eosinophil survival (7.14 nM wild-type IL-9) came to 4.92 nM and the IC50, antagonism of IL-9 mediated Mo7e proliferation (0.357 nM wild-type IL-9) stood at 0.66 nM.

“Amino-terminal Fc-fusion construct of the K126E/Q133K IL-9 mutein (Fc fusion)” gave an IC50, antagonism of IL-9-mediated eosinophil survival (7.14 nM wild-type IL-9) of 25.5 nM and an IC50, antagonism of IL-9 mediated Mo7e proliferation (0.357 nM wild-type IL-9) of 1.15 nM.
